Experimental data: patent US11286293
Where “and” joins values, the source holds several entries; their conditions need not be identical. Identical values can stand only once. Like-named read-outs stand apart in the source and are kept apart here.

Tests used:
Assay in all cases: SPR
[1] = biological target: T1, Tissue factor (TF) extracellular domain (human, UniProt P13726)
T1 chain: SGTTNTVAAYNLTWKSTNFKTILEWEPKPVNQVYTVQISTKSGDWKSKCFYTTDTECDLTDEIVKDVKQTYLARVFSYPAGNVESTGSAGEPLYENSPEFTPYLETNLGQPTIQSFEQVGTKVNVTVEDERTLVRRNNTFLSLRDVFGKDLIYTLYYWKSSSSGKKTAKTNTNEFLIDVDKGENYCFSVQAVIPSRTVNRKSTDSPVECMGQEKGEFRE

[2] = biological target: T1, Tissue factor (TF) extracellular domain
[3] = biological target: T1, Tissue factor (TF) extracellular domain
[4] = biological target: T1, Tissue factor (TF) extracellular domain

Kd [1]: 0.06 nM | Kd [2]: 0.056 nM | Kd [3]: 0.0522 nM and 0.0622 nM | Kd [4]: 0.052 nM
B1: D3H44 WT Fab (antibody)
chain 1: EVQLVESGGGLVQPGGSLRLSCAASGFNIKEYYMHWVRQAPGKGLEWVGLIDPEQGNTIYDPKFQDRATISADNSKNTAYLQMNSLRAEDTAVYYCAR
chain 2: DIQMTQSPSSLSASVGDRVTITCRASRDIKSYLNWYQQKPGKAPKVLIYYATSLAEGVPSRFSGSGSGTDYTLTISSLQPEDFATYYCLQHG
